The target of assay [1] is T1, mouse 161P2F10B expressed on 293T cells (mouse, UniProt Q6DYE8 1-874).
T1 construct: whole, on cells; also called murine 161P2F10B; mouse 161P2F10B ortholog
Description: FACS: 293T-mouse 161P2F10B cells (open line) vs 293T-neo cells (filled), MAb 2 µg/mL, anti-hIgG-PE.
Description: Cross reactivity of human MAbs on mouse 161P2F10B. […] Antibodies bound on the cells were detected using anti-hIgG-PE and analyzed on FACS. Data were analyzed using CellQuest Pro software. The solid purple line is data from negative control cells. The green line is from 161P2F10B-positive cells.

For assay [2], the target named is T2, Tag5-161P2F10B, purified recombinant extracellular domain (ECD) of 161P2F10B (amino acids 46-875) (human, UniProt O14638 46-875).
T2 construct: also called recombinant 161P2F10B; Tag5-161P2F10B-ECD
Briefly: SPR, MAb captured on CM5 chip, recombinant 161P2F10B 1-100 nM injected.
Description: Briefly, each purified human MAb is captured onto a CM5 sensor chip surface. On average approximately 150 RUs of each MAb is captured in every cycle.

T1 sequence (Q6DYE8 whole entry): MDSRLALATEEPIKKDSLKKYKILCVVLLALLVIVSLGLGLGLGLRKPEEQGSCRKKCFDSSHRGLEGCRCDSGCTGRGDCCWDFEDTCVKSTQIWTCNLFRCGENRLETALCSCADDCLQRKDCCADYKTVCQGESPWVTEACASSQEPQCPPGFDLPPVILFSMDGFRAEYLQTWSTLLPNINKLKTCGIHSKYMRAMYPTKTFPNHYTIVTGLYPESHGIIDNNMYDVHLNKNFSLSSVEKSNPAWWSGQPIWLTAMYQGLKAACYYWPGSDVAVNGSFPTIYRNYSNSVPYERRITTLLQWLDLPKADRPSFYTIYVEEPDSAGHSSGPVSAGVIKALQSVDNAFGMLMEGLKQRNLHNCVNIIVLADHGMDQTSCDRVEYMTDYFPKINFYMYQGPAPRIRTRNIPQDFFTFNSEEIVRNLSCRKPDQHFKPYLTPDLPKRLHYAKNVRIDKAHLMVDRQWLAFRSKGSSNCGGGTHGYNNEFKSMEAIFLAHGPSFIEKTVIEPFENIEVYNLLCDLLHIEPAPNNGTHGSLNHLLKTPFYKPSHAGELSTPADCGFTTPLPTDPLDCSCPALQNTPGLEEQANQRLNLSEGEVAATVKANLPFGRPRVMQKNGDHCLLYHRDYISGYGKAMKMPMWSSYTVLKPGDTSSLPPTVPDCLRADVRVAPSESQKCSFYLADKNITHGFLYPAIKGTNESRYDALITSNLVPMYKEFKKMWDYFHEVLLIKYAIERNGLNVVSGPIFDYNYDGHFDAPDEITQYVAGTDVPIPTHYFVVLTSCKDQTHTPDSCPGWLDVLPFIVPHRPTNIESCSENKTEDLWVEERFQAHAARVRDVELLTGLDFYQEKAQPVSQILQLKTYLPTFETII

B1: H16-7.8 (antibody, V domains shown)
VH: QVQLQESGPGLVKPSQTLSLTCTVSGGSISSGGYYWSWIRQHPGKGLEWIGIIYYSGSTYYNPSLKSRVTISVDTSKNQFSLKLNSVTAADTAVFYCARVAIVTTIPGGMDVWGQGTTVTVSS
VL: EIVLTQSPDFQSVTPKEKVTITCRASQSIGISLHWYQQKPDQSPKLLIKYASQSFSGVPSRFSGSGSGTDFTLTINSLEAEDAATYYCHQSRSFPWTFGQGTKVEIKR
notes: Entries include the leader and a portion of the constant region
On to B1, for which, in assay [1], the binding result is “binds”.

B2: H16-7.200 (antibody, V domains shown)
VH: QVQLQESGPGLVKPSQTLSLTCTVSGGSITSGDYYWSWIRQHPGKGLEWFGFIYYSGSAYYNPSLKSRITISVDTSKNQFSLKLSSVTAADTAVYYCARERNYGGNSFDYWGQGTLVTVSS
VL: not shown
notes: Entries include the leader (VL: part of it) and a portion of the constant region; also called HA16-7.200
As to B2, the dissociation constant Kd in assay [2] was 9 nM.

The values above are taken from US20060275211A1 (AGENSYS, published 2006).
